This is an account of results in EP1086377B1, “A METHOD OF IDENTIFYING LIGANDS TO RNA […] 70 SUBUNIT” (AstraZeneca AB, priority 1998, dated 1999).

Some results are limits rather than exact numbers.

The target in assay [1] is T1, Truncated sigma^70 (C-terminal 99 amino acids) (Escherichia coli, UniProt P00579).
T1 construct: made in house; GST-AsiA from E. coli DH5alpha / pARC 8105
Briefly: Competitive ELISA for quantification of AsiA-sigma^70 interaction (GST-AsiA binding to immobilised truncated sigma^70). On the set-up: species or system E. coli. The protocol: A solution of the protein product (200 pmoles/ml) in a pH 7.5 buffer comprising Tris HCl (10 mM) and sodium chloride (50 mM) was prepared and 200 µl of solution were added per well of a nickel-coated microtitre plate, followed by incubation at room temperature for a period of two hours. The microtitre plate was then washed 5 times with the buffer solution and then incubated at 37°C for one hour with a solution of bovine serum albumin (3% w/v) in the above buffer. After washing 5 times with phosphate buffered saline (PBS) with "Tween" 20 (polyoxyethylene (20) sorbitan monolaurate, 0.5% v/v), the GST-AsiA fusion protein prepared as described in Example 4.1. above (100 ng) was added together with a defined amount of a putative inhibitor of truncated sigma^70 protein (corallopyronin, myxopyronin or ripostatin) and incubated at 37°C for one hour. Further washing (5 times) with PBS-"Tween" 20 was carried out and then anti-GST antibodies (1:2000) raised in rabbits were added to the wells, with incubation at 37°C for one hour. The previous washing step was repeated and thereafter anti-rabbit IgG-horse radish peroxidase (HRP) conjugate (1:2000) was added and incubated at 37°C for one hour. A final wash with PBS-"Tween" 20 was carried out, before adding the HRP enzyme substrate, tetramethyl benzidene/ H2O2. The enzymic reaction (resulting in the development of colour) was stopped after a suitable period of time by the addition of 6N H2SO4 and the microtitre plate was "read" in a spectrophotometer using light of wavelength (λ) 450 nm.

The target of assay [2] is Truncated sigma^70 (C-terminal 99 amino acids of E. coli sigma^70), (His)5-tagged (Escherichia coli) (UniProt P00579). The assay is described as follows: competitive ELISA; His-tagged truncated sigma^70 on nickel plate, free AsiA 7 µg/ml competing with GST-AsiA 500 ng/ml; the value is the GST-AsiA binding that remains. (In general: In an ELISA, binding on a coated surface is turned into a signal by an enzyme label.)

For assay [3], the target named is E. coli RNA polymerase sigma^70 subunit (Escherichia coli) (UniProt P00579). Briefly: cell-based or functional assay.
In assay [4] the target is Salmonella typhimurium RNA polymerase sigma^70 subunit (Salmonella typhimurium) (UniProt P0A2E3). Briefly: cell-based or functional assay.
In assay [5] the target is Truncated sigma^70 (C-terminal 99 amino acids of E. coli sigma^70), (His)5-tagged (Escherichia coli) (UniProt P00579). Briefly: ELISA; His-tagged truncated sigma^70 on nickel plate, GST-AsiA detected with rabbit anti-GST and anti-rabbit IgG-HRP, OD 450 nm; reference without competitor.
Setting [6] is: GST-AsiA 500 ng/ml + competitor at 30 µg/ml.

Chain of E. coli RNA polymerase sigma^70 subunit (Escherichia coli) (P00579 whole entry): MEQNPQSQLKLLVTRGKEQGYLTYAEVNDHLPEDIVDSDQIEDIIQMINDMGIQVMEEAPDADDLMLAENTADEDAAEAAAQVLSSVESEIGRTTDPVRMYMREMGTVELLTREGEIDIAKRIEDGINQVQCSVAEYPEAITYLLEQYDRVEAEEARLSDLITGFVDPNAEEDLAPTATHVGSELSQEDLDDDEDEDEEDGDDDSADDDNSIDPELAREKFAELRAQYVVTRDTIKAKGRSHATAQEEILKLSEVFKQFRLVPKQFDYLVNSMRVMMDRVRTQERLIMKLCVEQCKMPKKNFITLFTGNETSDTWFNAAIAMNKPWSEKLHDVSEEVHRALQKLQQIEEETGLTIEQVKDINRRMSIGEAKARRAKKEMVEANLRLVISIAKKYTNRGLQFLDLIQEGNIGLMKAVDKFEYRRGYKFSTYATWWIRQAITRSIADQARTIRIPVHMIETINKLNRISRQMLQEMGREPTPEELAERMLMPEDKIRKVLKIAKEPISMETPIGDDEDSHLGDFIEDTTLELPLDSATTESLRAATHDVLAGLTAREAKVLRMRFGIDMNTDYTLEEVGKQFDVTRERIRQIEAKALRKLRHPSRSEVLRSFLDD
T1 sequence (P00579 515-613): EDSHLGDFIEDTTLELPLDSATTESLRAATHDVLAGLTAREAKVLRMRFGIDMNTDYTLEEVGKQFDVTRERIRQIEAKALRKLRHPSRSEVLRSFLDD
Chain of Truncated sigma^70 (C-terminal 99 amino acids of E. coli sigma^70), (His)5-tagged (Escherichia coli) (P00579 515-613): as above
Chain of Salmonella typhimurium RNA polymerase sigma^70 subunit (Salmonella typhimurium) (P0A2E3 whole entry, the tested form may be a part): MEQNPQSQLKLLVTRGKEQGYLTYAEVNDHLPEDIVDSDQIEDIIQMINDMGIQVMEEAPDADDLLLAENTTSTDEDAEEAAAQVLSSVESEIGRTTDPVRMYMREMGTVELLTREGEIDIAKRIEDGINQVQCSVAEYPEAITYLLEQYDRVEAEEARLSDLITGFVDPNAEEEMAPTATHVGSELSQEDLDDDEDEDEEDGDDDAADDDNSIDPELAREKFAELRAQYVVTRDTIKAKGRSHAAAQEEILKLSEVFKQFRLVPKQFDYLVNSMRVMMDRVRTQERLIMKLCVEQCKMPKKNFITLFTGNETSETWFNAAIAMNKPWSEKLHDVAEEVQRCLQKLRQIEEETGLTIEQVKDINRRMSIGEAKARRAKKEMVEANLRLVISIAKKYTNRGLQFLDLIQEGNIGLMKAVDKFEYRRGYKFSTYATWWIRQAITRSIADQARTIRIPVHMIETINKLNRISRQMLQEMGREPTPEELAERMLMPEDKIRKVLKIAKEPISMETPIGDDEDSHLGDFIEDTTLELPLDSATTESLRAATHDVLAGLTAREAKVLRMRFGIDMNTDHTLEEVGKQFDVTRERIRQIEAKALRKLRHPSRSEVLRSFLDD
Chain of GST-AsiA fusion protein (glutathione-S-transferase fused to the N-terminus of the bacteriophage T4 a (P08515 whole entry, the tested form may be a part): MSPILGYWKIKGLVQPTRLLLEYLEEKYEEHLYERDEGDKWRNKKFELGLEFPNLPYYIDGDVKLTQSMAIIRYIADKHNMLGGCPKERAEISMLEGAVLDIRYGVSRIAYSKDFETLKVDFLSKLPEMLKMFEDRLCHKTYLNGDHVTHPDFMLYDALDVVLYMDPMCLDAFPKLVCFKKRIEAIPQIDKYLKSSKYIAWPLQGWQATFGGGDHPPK

As for `C/C=C/C/C=C(\C)C(O)CC/C(C)=C/C=C(\C)C(=O)c1c(O)cc([C@H](C)CC/C=C/NC(=O)OC)oc1=O` (some centres unmarked) [corallopyronin], in assay [1] (setting [6]), the “% Binding to truncated sigma^70” value is reported as 69%.

For the compound `C/C(=C\Cc1ccccc1)CCC(=O)C[C@H]1C[C@H](O)C/C(C)=C/C/C=C/C/C(CC(=O)O)=C\C(=O)O1` [ripostatin], the entries for the “% Binding to truncated sigma^70” value in assay [1] (GST-AsiA 500 ng/ml + competitor at 1 µg/ml), in assay [1] (GST-AsiA 500 ng/ml + competitor at 10 µg/ml) and in assay [1] (GST-AsiA 500 ng/ml + competitor at 100 µg/ml) were 100%, 55% and 1.5%, respectively.

Consider “AsiA protein (anti-sigma^70 factor of bacteriophage T4, asiA gene product), released from GST-AsiA by Factor Xa”, for which, in assay [2], the % Binding to truncated sigma^70 was determined as 12%. In assay [3], the [^3H]UTP (nmol) incorporated: E. coli RNA polymerase + 0.1 µg AsiA (control without AsiA 2.1), E. coli sigma^70 series is 0.57 nmol; the [^3H]UTP (nmol) incorporated: E. coli RNA polymerase + 0.1 µg AsiA (control without AsiA 2.3), S. typhimurium sigma^70 series before sigma^70 is added is 0.34 nmol; the [^3H]UTP (nmol) incorporated: E. coli RNA polymerase + 0.1 µg AsiA + 4 µg E. coli sigma^70 (reactivation) is 2.3 nmol; the [^3H]UTP (nmol) incorporated: E. coli RNA polymerase + 0.1 µg AsiA + 4 µg E. coli sigma^70 preincubated with 0.1 µg AsiA came out at 0.68 nmol. In assay [3], this compound registered an inhibition of E. coli RNA polymerase activity by 0.07 µg AsiA, T4 DNA template of over 80%. In assay [4], the [^3H]UTP (nmol) incorporated: E. coli RNA polymerase + 0.1 µg AsiA + 4 µg S. typhimurium sigma^70 (reactivation) was found to be 3 nmol and the [^3H]UTP (nmol) incorporated: E. coli RNA polymerase + 0.1 µg AsiA + 4 µg S. typhimurium sigma^70 preincubated with 0.1 µg AsiA is 0.98 nmol.

Regarding “GST-AsiA fusion protein (glutathione-S-transferase fused to the N-terminus of the bacteriophage T4 a (from UniProt P08515 1-218)”, the % Binding to truncated sigma^70 in assay [5] was determined as 100%.

In the case of myxopyronin, the “% Binding to truncated sigma^70” value in assay [1] (setting [6]) was found to be 56%.
